Experimental data taken from article PMC6069114, “Fungal Light-Oxygen-Voltage Domains for Optogenetic Control of Gene Expression and Flocculation in Yeast” (mBio, 2018).

Experiments:
[1] = target: T1, LOV domain of White Collar 1 (WC-1) bound to the Gal4 DNA binding domain (Neurospora crassa, UniProt Q01371 381-508); assay: two-hybrid; FUN-LOV switch in S. cerevisiae; luciferase activity in protein extracts of cells grown 8 h in constant light (LL) against constant darkness (DD), normalised to total protein; settings: partners not purified
T1 construct: White Collar 1 (WC-1), blue-light photoreceptor of Neurospora crassa; LOV domain only; also called WC-1 LOV-BD; WC-1 LOV plus GAL4-DBD; source: yeast two-hybrid fusion; S. cerevisiae BY4741 (wt or gal4Δ-gal80Δ), episomal pRS423, ADH1 promoter
T1 sequence (looked up): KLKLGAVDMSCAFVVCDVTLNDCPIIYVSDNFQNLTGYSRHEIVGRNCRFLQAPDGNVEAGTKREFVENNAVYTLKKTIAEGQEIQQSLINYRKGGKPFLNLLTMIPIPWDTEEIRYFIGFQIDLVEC

[2] = target: T1, LOV domain of White Collar 1 (WC-1) …; assay: two-hybrid; FUN-LOV switch in S. cerevisiae; destabilized firefly luciferase reporter under P_(GAL1) or P_(5XGAL1); luminescence of living cells normalised by OD600; constant white light (100 µmol m^-2 s^-1) or constant blue light (20 µmol m^-2 s^-1), 30°C; fold induction against the average background in constant darkness; settings: partners not purified

fold induction of luciferase activity in protein extracts, LL over DD [1]: ~2500 fold | fold induction of the luciferase reporter, blue light over darkness (P_(5XGAL1)) [2]: 1320 fold | fold induction of the luciferase reporter, white light over darkness (P_(5XGAL1)) [2]: 1220 fold
B1: full-length VIVID (VVD) tethered to the Gal4 transactivation domain (natural protein, Neurospora crassa, UniProt Q9C3Y6 1-186, looked up)
chain: MSHTVNSSTMNPWEVEAYQQYHYDPRTAPTANPLFFHTLYAPGGYDIMGYLIQIMNRPNPQVELGPVDTSCALILCDLKQKDTPIVYASEAFLYMTGYSNAEVLGRNCRFLQSPDGMVKPKSTRKYVDSNTINTMRKAIDRNAEVQVEVVNFKKNGQRFVNFLTMIPVRDETGEYRYSMGFQCETE
notes: VIVID (VVD), blue-light photoreceptor of Neurospora crassa; full-length VVD and not just VVD-36; also called VVD-AD; VVD plus GAL4-AD; source: yeast two-hybrid fusion; S. cerevisiae BY4741 (wt or gal4Δ-gal80Δ), episomal pRS425, ADH1 promoter
